Measured values: patent publication US8663655B2, “Method for transforming a bacterium belonging to the Streptococcus genus by natural competence” (Dupont Nutrition Biosciences APS, dated 2014)
Like-named read-outs stand apart in the source and are kept apart here.

Tests used:
[1] = molecular target: STER-0316 homologue of S. thermophilus CNRZ1066 (Streptococcus thermophilus CNRZ1066)
[2] = molecular target: T1, transcriptional regulator (Rgg) STER-0316 (Streptococcus thermophilus LMD-9); assay: cell-based or functional assay
T1 chain: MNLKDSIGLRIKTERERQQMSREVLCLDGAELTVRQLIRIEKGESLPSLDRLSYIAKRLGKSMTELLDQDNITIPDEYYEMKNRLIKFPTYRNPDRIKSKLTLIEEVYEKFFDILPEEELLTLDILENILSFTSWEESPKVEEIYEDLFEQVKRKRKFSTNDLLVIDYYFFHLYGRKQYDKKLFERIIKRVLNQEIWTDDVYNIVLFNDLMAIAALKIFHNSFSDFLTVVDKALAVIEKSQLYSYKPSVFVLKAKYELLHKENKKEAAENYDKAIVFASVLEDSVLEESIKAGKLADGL

[3] = molecular target: STER-0316 homologue of S. thermophilus LMG18311 (Streptococcus thermophilus LMG18311)
[4] = molecular target: STER-0316 homologue of S. thermophilus CNRZ1066 (Streptococcus thermophilus CNRZ1066); remark: listed apart in the source
[5] = molecular target: STER-0316 homologue of S. thermophilus LMG18311 (Streptococcus thermophilus LMG18311); remark: listed apart in the source
[6] = molecular target: STER-0316 homologue of S. thermophilus CNRZ1066 (Streptococcus thermophilus CNRZ1066); remark: listed apart in the source

Molecule | Transformation rate with peptide addition (1 µM) [2] | further results
synthetic peptide PYFTGCL |  | Transformation rate of S. thermophilus CNRZ1066 with peptide addition (1 µM) [1]: 3.48e-07
PYFAGCL [synthetic peptide PYFAGCL] | 0.00478 | Transformation rate of S. thermophilus LMG18311 with peptide addition (1 µM) [3]: 0.000317; Transformation rate of S. thermophilus CNRZ1066 with peptide addition (1 µM) [4]: 0.000369
LPYFAGCL [synthetic peptide LPYFAGCL] | 0.00318 | Transformation rate of S. thermophilus LMG18311 with peptide addition (1 µM), donor pGIUD0855cat [5]: 0.13; Transformation rate of S. thermophilus CNRZ1066 with peptide addition (1 µM), donor pGIUD0855cat [6]: 0.03
ILPYFAGC [synthetic peptide ILPYFAGC] | < 1e-08 | 
AILPYFAGC [synthetic peptide AILPYFAGC] | < 1e-08 | 
PYFAG [synthetic peptide PYFAG] | < 1e-08 | 
ILPYFAG [synthetic peptide ILPYFAG] | < 1e-08 | 
ILPYFAGCL [synthetic peptide ILPYFAGCL] | 0.00342 | 
AILPYFAGCL [synthetic peptide AILPYFAGCL] | 0.00221 | 
PYFAGC [synthetic peptide PYFAGC] | < 1e-08 | 
LPYFAGC [synthetic peptide LPYFAGC] | < 1e-08 | 
